doi:10.1101/2020.07.21.214338

Key:
Test in all cases: native gel or EMSA
[1] = biological target: 12x nucleosome array (human | Xenopus laevis)
[2] = biological target: 147-bp nucleosome core particle (human | Xenopus laevis)
[3] = biological target: 209-bp nucleosome core particle (human | Xenopus laevis)

Substance: CBP core-ZZ-TAZ2 (domain or fragment)
- Kd [1]: 309 nM
- Kd [2]: 1000 nM
- Kd [3]: 540 nM
